Reference: article PMC3552960

What was measured:
[1] = target: CCR5 Thr^2.56(82)Lys mutant receptor (human) (UniProt P51681)
[2] = target: CCR5 Thr^2.56(82)Lys/Arg^6.32(225)Gln double-mutant receptor (human) (UniProt P51681)
[3] = target: CCR5 Thr^2.56(82)Pro mutant receptor (human) (UniProt P51681)
[4] = target: CCR5 Thr^2.56(82)Pro/Arg^6.32(225)Gln double-mutant receptor (human) (UniProt P51681)
[5] = target: wild type human CCR5 chemokine receptor (human) (UniProt P51681)

## HIV-1C Du151 gp150 envelope glycoprotein (Env), carboxy-terminally truncated (natural protein)
[1]
  Env-directed cell fusion (luciferase) on HOS-CD4-Luc cells; maximum fusion: 4.6 % wild type
  Env-directed cell fusion (luciferase) on HOS-CD4-Luc cells; maximum fusion efficiency (fusion coefficient) (fusion coefficient): 0.84
[2]
  Env-directed cell fusion (luciferase) on HOS-CD4-Luc cells; maximum fusion: 16.8 % wild type
  Env-directed cell fusion (luciferase) on HOS-CD4-Luc cells; maximum fusion efficiency (fusion coefficient) (fusion coefficient): 1.9
[3]
  Env-directed cell fusion (luciferase) on HOS-CD4-Luc cells; maximum fusion: 135 % wild type
  Env-directed cell fusion (luciferase) on HOS-CD4-Luc cells; maximum fusion efficiency (fusion coefficient) (fusion coefficient): 16.5
[4]
  Env-directed cell fusion (luciferase) on HOS-CD4-Luc cells; maximum fusion: 135 % wild type
  Env-directed cell fusion (luciferase) on HOS-CD4-Luc cells; maximum fusion efficiency (fusion coefficient) (fusion coefficient): 18.8
[5]
  Env-directed cell fusion (luciferase) on HOS-CD4-Luc cells; maximum fusion efficiency (fusion coefficient: luciferase activity divided by mean fluorescence) (fusion coefficient): 11.8
